{"source": "the supplement of paper PMC5998384", "key": {"HeLa Kyoto [1]": {"system": "HeLa Kyoto", "experiment": "solubility in G1/S (NP-40 vs SDS abundance) (log2 ratio); higher = more soluble", "conditions": "cell cycle stage: G1/S"}, "HeLa Kyoto [2]": {"system": "HeLa Kyoto", "experiment": "melting temperature (median over replicates), in situ; higher = more thermally stable"}, "HeLa Kyoto [3]": {"system": "HeLa Kyoto", "experiment": "solubility change mitosis vs G1/S (difference of NP-40 vs SDS log2 ratios) (log2 ratio difference); higher = more soluble in mitosis"}, "HeLa Kyoto [4]": {"system": "HeLa Kyoto", "experiment": "thermal stability score vs G1/S (z-score of summed log2 fold changes over temperatures); higher = more thermally stable than in G1/S"}, "[5]": {"conditions": "cell cycle stage: early G1 (4.5 h after nocodazole release)"}}, "data": [{"sequence": "MGDMANNSVAYSGVKNSLKEANHDGDFGITLAELRALMELRSTDALRKIQESYGDVYGICTKLKTSPNEGLSGNPADLERREAVFGKNFIPPKKPKTFLQLVWEALQDVTLIILEIAAIVSLGLSFYQPPEGDNALCGEVSVGEEEGEGETGWIEGAAILLSVVCVVLVTAFNDWSKEKQFRGLQSRIEQEQKFTVIRGGQVIQIPVADITVGDIAQVKYGDLLPADGILIQGNDLKIDESSLTGESDHVKKSLDKDPLLLSGTHVMEGSGRMVVTAVGVNSQTGIIFTLLGAGGEEEEKKDEKKKEKKNKKQDGAIENRNKAKAQDGAAMEMQPLKSEEGGDGDEKDKKKANLPKKEKSVLQGKLTKLAVQIGKAGLLMSAITVIILVLYFVIDTFWVQKRPWLAECTPIYIQYFVKFFIIGVTVLVVAVPEGLPLAVTISLAYSVKKMMKDNNLVRHLDACETMGNATAICSDKTGTLTMNRMTVVQAYINEKHYKKVPEPEAIPPNILSYLVTGISVNCAYTSKILPPEKEGGLPRHVGNKTECALLGLLLDLKRDYQDVRNEIPEEALYKVYTFNSVRKSMSTVLKNSDGSYRIFSKGASEIILKKCFKILSANGEAKVFRPRDRDDIVKTVIEPMASEGLRTICLAFRDFPAGEPEPEWDNENDIVTGLTCIAVVGIEDPVRPEVPDAIKKCQRAGITVRMVTGDNINTARAIATKCGILHPGEDFLCLEGKDFNRRIRNEKGEIEQERIDKIWPKLRVLARSSPTDKHTLVKGIIDSTVSDQRQVVAVTGDGTNDGPALKKADVGFAMGIAGTDVAKEASDIILTDDNFTSIVKAVMWGRNVYDSISKFLQFQLTVNVVAVIVAFTGACITQDSPLKAVQMLWVNLIMDTLASLALATEPPTESLLLRKPYGRNKPLISRTMMKNILGHAFYQLVVVFTLLFAGEKFFDIDSGRNAPLHAPPSEHYTIVFNTFVLMQLFNEINARKIHGERNVFEGIFNNAIFCTIVLGTFVVQIIIVQFGGKPFSCSELSIEQWLWSIFLGMGTLLWGQLISTIPTSRLKFLKEAGHGTQKEEIPEEELAEDVEEIDHAERELRRGQILWFRGLNRIQTQIRVVNAFRSSLYEGLEKPESRSSIHNFMTHPEFRIEDSEPHIPLIDDTDAEDDAPTKRNSSPPPSPNKNNNAVDSGIHLTIEMNKSATSSSPGSPLHSLETSL [ATP2B1]", "values": [{"measurement": "solubility in G1/S (log2)", "setting": "HeLa Kyoto [1]", "result": -0.179}, {"measurement": "melting temperature", "setting": "HeLa Kyoto [2]; cell cycle stage: G1/S", "result": 54.1, "unit": "°C"}, {"measurement": "melting temperature", "setting": "HeLa Kyoto [2]; cell cycle stage: mitosis", "result": 53.4, "unit": "°C"}, {"measurement": "solubility change mitosis (log2)", "setting": "HeLa Kyoto [3]", "result": -0.103}, {"measurement": "thermal stability score", "setting": "HeLa Kyoto [4]; [5]", "result": 0.336}, {"measurement": "thermal stability score", "setting": "HeLa Kyoto [4]; cell cycle stage: mitosis", "result": 1.72}]}, {"sequence": "MASSNTVLMRLVASAYSIAQKAGMIVRRVIAEGDLGIVEKTCATDLQTKADRLAQMSICSSLARKFPKLTIIGEEDLPSEEVDQELIEDSQWEEILKQPCPSQYSAIKEEDLVVWVDPLDGTKEYTEGLLDNVTVLIGIAYEGKAIAGVINQPYYNYEAGPDAVLGRTIWGVLGLGAFGFQLKEVPAGKHIITTTRSHSNKLVTDCVAAMNPDAVLRVGGAGNKIIQLIEGKASAYVFASPGCKKWDTCAPEVILHAVGGKLTDIHGNVLQYHKDVKHMNSAGVLATLRNYDYYASRVPESIKNALVP [BPNT1]", "values": [{"measurement": "solubility in G1/S (log2)", "setting": "HeLa Kyoto [1]", "result": 0.211}, {"measurement": "melting temperature", "setting": "HeLa Kyoto [2]; cell cycle stage: G1/S", "result": 57.5, "unit": "°C"}, {"measurement": "melting temperature", "setting": "HeLa Kyoto [2]; cell cycle stage: mitosis", "result": 57.9, "unit": "°C"}, {"measurement": "solubility change mitosis (log2)", "setting": "HeLa Kyoto [3]", "result": -0.0215}, {"measurement": "thermal stability score", "setting": "HeLa Kyoto [4]; [5]", "result": -0.366}, {"measurement": "thermal stability score", "setting": "HeLa Kyoto [4]; cell cycle stage: mitosis", "result": -1.21}]}, {"sequence": "MGRVQLFEISLSHGRVVYSPGEPLAGTVRVRLGAPLPFRAIRVTCIGSCGVSNKANDTAWVVEEGYFNSSLSLADKGSLPAGEHSFPFQFLLPATAPTSFEGPFGKIVHQVRAAIHTPRFSKDHKCSLVFYILSPLNLNSIPDIEQPNVASATKKFSYKLVKTGSVVLTASTDLRGYVVGQALQLHADVENQSGKDTSPVVASLLQKVSYKAKRWIHDVRTIAEVEGAGVKAWRRAQWHEQILVPALPQSALPGCSLIHIDYYLQVSLKAPEATVTLPVFIGNIAVNHAPVSPRPGLGLPPGAPPLVVPSAPPQEEAEAEAAAGGPHFLDPVFLSTKSHSQRQPLLATLSSVPGAPEPCPQDGSPASHPLHPPLCISTGATVPYFAEGSGGPVPTTSTLILPPEYSSWGYPYEAPPSYEQSCGGVEPSLTPES [ARRDC1]", "values": [{"measurement": "solubility in G1/S (log2)", "setting": "HeLa Kyoto [1]", "result": 0.131}, {"measurement": "melting temperature", "setting": "HeLa Kyoto [2]; cell cycle stage: G1/S", "result": 53.2, "unit": "°C"}, {"measurement": "melting temperature", "setting": "HeLa Kyoto [2]; cell cycle stage: mitosis", "result": 52.1, "unit": "°C"}, {"measurement": "solubility change mitosis (log2)", "setting": "HeLa Kyoto [3]", "result": -0.0855}, {"measurement": "thermal stability score", "setting": "HeLa Kyoto [4]; [5]", "result": -1.09}, {"measurement": "thermal stability score", "setting": "HeLa Kyoto [4]; cell cycle stage: mitosis", "result": -1.63}]}, {"sequence": "MELVAGCYEQVLFGFAVHPEPEACGDHEQWTLVADFTHHAHTASLSAVAVNSRFVVTGSKDETIHIYDMKKKIEHGALVHHSGTITCLKFYGNRHLISGAEDGLICIWDAKKWECLKSIKAHKGQVTFLSIHPSGKLALSVGTDKTLRTWNLVEGRSAFIKNIKQNAHIVEWSPRGEQYVVIIQNKIDIYQLDTASISGTITNEKRISSVKFLSESVLAVAGDEEVIRFFDCDSLVCLCEFKAHENRVKDMFSFEIPEHHVIVSASSDGFIKMWKLKQDKKVPPSLLCEINTNARLTCLGVWLDKVADMKESLPPAAEPSPVSKEQSKIGKKEPGDTVHKEEKRSKPNTKKRGLTGDSKKATKESGLISTKKRKMVEMLEKKRKKKKIKTMQ [PAK1IP1]", "values": [{"measurement": "solubility in G1/S (log2)", "setting": "HeLa Kyoto [1]", "result": -1.64}, {"measurement": "melting temperature", "setting": "HeLa Kyoto [2]; cell cycle stage: G1/S", "result": 56.5, "unit": "°C"}, {"measurement": "melting temperature", "setting": "HeLa Kyoto [2]; cell cycle stage: mitosis", "result": 53.8, "unit": "°C"}, {"measurement": "solubility change mitosis (log2)", "setting": "HeLa Kyoto [3]", "result": 0.614}, {"measurement": "thermal stability score", "setting": "HeLa Kyoto [4]; [5]", "result": -1.32}, {"measurement": "thermal stability score", "setting": "HeLa Kyoto [4]; cell cycle stage: mitosis", "result": -5.78}]}, {"sequence": "MHPPKTPSGALHRKRKMAAWPFSRLWKVSDPILFQMTLIAALLPAVLGNCGPPPTLSFAAPMDITLTETRFKTGTTLKYTCLPGYVRSHSTQTLTCNSDGEWVYNTFCIYKRCRHPGELRNGQVEIKTDLSFGSQIEFSCSEGFFLIGSTTSRCEVQDRGVGWSHPLPQCEIVKCKPPPDIRNGRHSGEENFYAYGFSVTYSCDPRFSLLGHASISCTVENETIGVWRPSPPTCEKITCRKPDVSHGEMVSGFGPIYNYKDTIVFKCQKGFVLRGSSVIHCDADSKWNPSPPACEPNSCINLPDIPHASWETYPRPTKEDVYVVGTVLRYRCHPGYKPTTDEPTTVICQKNLRWTPYQGCEALCCPEPKLNNGEITQHRKSRPANHCVYFYGDEISFSCHETSRFSAICQGDGTWSPRTPSCGDICNFPPKIAHGHYKQSSSYSFFKEEIIYECDKGYILVGQAKLSCSYSHWSAPAPQCKALCRKPELVNGRLSVDKDQYVEPENVTIQCDSGYGVVGPQSITCSGNRTWYPEVPKCEWETPEGCEQVLTGKRLMQCLPNPEDVKMALEVYKLSLEIEQLELQRDSARQSTLDKEL [C4BPA]", "values": [{"measurement": "solubility in G1/S (log2)", "setting": "HeLa Kyoto [1]", "result": -0.459}, {"measurement": "melting temperature", "setting": "HeLa Kyoto [2]; cell cycle stage: G1/S", "result": 54.4, "unit": "°C"}, {"measurement": "melting temperature", "setting": "HeLa Kyoto [2]; cell cycle stage: mitosis", "result": 56.1, "unit": "°C"}, {"measurement": "solubility change mitosis (log2)", "setting": "HeLa Kyoto [3]", "result": -0.146}, {"measurement": "thermal stability score", "setting": "HeLa Kyoto [4]; [5]", "result": 5.62}, {"measurement": "thermal stability score", "setting": "HeLa Kyoto [4]; cell cycle stage: mitosis", "result": 9.17}]}, {"sequence": "MADAWEEIRRLAADFQRAQFAEATQRLSERNCIEIVNKLIAQKQLEVVHTLDGKEYITPAQISKEMRDELHVRGGRVNIVDLQQVINVDLIHIENRIGDIIKSEKHVQLVLGQLIDENYLDRLAEEVNDKLQESGQVTISELCKTYDLPGNFLTQALTQRLGRIISGHIDLDNRGVIFTEAFVARHKARIRGLFSAITRPTAVNSLISKYGFQEQLLYSVLEELVNSGRLRGTVVGGRQDKAVFVPDIYSRTQSTWVDSFFRQNGYLEFDALSRLGIPDAVSYIKKRYKTTQLLFLKAACVGQGLVDQVEASVEEAISSGTWVDIAPLLPTSLSVEDAAILLQQVMRAFSKQASTVVFSDTVVVSEKFINDCTELFRELMHQKAEKEMKNNPVHLITEEDLKQISTLESVSTSKKDKKDERRRKATEGSGSMRGGGGGNAREYKIKKVKKKGRKDDDSDDESQSSHTGKKKPEISFMFQDEIEDFLRKHIQDAPEEFISELAEYLIKPLNKTYLEVVRSVFMSSTTSASGTGRKRTIKDLQEEVSNLYNNIRLFEKGMKFFADDTQAALTKHLLKSVCTDITNLIFNFLASDLMMAVDDPAAITSEIRKKILSKLSEETKVALTKLHNSLNEKSIEDFISCLDSAAEACDIMVKRGDKKRERQILFQHRQALAEQLKVTEDPALILHLTSVLLFQFSTHSMLHAPGRCVPQIIAFLNSKIPEDQHALLVKYQGLVVKQLVSQSKKTGQGDYPLNNELDKEQEDVASTTRKELQELSSSIKDLVLKSRKSSVTEE [UFL1]", "values": [{"measurement": "solubility in G1/S (log2)", "setting": "HeLa Kyoto [1]", "result": -0.013}, {"measurement": "melting temperature", "setting": "HeLa Kyoto [2]; cell cycle stage: G1/S", "result": 50, "unit": "°C"}, {"measurement": "melting temperature", "setting": "HeLa Kyoto [2]; cell cycle stage: mitosis", "result": 49.8, "unit": "°C"}, {"measurement": "solubility change mitosis (log2)", "setting": "HeLa Kyoto [3]", "result": -0.0952}, {"measurement": "thermal stability score", "setting": "HeLa Kyoto [4]; [5]", "result": 1.14}, {"measurement": "thermal stability score", "setting": "HeLa Kyoto [4]; cell cycle stage: mitosis", "result": 2.59}]}]}
